Results published in article PMC11548754, “DRN facilitates WUS transcriptional regulatory activity by chromatin remodeling to regulate shoot stem cell homeostasis in Arabidopsis” (PLOS Biology, 2024).

B1: GST-WUS (natural protein, Arabidopsis, UniProt Q9SB92 1-292, looked up)
chain: MEPPQHQHHHHQADQESGNNNNNKSGSGGYTCRQTSTRWTPTTEQIKILKELYYNNAIRSPTADQIQKITARLRQFGKIEGKNVFYWFQNHKARERQKKRFNGTNMTTPSSSPNSVMMAANDHYHPLLHHHHGVPMQRPANSVNVKLNQDHHLYHHNKPYPSFNNGNLNHASSGTECGVVNASNGYMSSHVYGSMEQDCSMNYNNVGGGWANMDHHYSSAPYNFFDRAKPLFGLEGHQEEEECGGDAYLEHRRTLPLFPMHGEDHINGGSGAIWKYGQSEVRPCASLELRLN
notes: also called WUSCHEL; glutathione-S-transferase (GST)-WUS; source: E. coli BL21 (DE3), purified (glutathione resin); for EMSA also size-exclusion chromatography; not shown: GST, N-terminal, kept
B2: 8His-MBP-DRN (natural protein)
chain: not shown
notes: also called DORNRÖSCHEN; source: E. coli BL21 (DE3), purified (Ni resin); for EMSA also size-exclusion chromatography; not shown: 8His, N-terminal, kept; MBP, N-terminal, kept

Legend:
8His-MBP-DRN = molecular target: B2; assay: native gel or EMSA; EMSA with biotin-labelled CLV3 promoter probe (−1,090 to −1,064); GST-WUS alone or with 8His-MBP-DRN; super-shift; details: both partners purified
8His-MBP-DRN, sequence (Q9SAD4 whole entry): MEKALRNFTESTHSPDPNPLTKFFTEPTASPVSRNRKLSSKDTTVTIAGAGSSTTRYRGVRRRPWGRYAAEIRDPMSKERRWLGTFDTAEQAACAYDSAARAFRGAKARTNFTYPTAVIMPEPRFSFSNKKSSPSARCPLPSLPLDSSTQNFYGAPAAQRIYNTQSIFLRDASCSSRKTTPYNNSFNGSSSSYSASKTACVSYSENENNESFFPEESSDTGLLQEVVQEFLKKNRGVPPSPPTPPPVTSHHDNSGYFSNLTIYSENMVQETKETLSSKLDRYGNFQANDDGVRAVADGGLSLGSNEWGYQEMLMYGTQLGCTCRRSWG

[1] = molecular target: the molecule itself; assay: pull-down; competition: agarose beads with 8His-MBP-WUS incubated with soluble GST-WUS for 6 h before soluble 8His-MBP-DRN was added; binding group without DRN
GST-BRM = molecular target: T1, GST-BRM (Arabidopsis, UniProt Q6EVK6 1-976); assay: pull-down; beads loaded with protein and soluble protein rotated at 4°C for 4 h in pull-down buffer (200 mM NaCl, 1 mM EDTA, 20 mM Tris-HCl, 0.15 mM PMSF, pH 8.0); blots with anti-GST and anti-His; details: both partners purified
T1 construct: The pull-down methods call it GST-BRM; also called BRAHMA; source: E. coli BL21 (DE3), purified (glutathione resin); not shown: GST, N-terminal, kept
T1 sequence (looked up): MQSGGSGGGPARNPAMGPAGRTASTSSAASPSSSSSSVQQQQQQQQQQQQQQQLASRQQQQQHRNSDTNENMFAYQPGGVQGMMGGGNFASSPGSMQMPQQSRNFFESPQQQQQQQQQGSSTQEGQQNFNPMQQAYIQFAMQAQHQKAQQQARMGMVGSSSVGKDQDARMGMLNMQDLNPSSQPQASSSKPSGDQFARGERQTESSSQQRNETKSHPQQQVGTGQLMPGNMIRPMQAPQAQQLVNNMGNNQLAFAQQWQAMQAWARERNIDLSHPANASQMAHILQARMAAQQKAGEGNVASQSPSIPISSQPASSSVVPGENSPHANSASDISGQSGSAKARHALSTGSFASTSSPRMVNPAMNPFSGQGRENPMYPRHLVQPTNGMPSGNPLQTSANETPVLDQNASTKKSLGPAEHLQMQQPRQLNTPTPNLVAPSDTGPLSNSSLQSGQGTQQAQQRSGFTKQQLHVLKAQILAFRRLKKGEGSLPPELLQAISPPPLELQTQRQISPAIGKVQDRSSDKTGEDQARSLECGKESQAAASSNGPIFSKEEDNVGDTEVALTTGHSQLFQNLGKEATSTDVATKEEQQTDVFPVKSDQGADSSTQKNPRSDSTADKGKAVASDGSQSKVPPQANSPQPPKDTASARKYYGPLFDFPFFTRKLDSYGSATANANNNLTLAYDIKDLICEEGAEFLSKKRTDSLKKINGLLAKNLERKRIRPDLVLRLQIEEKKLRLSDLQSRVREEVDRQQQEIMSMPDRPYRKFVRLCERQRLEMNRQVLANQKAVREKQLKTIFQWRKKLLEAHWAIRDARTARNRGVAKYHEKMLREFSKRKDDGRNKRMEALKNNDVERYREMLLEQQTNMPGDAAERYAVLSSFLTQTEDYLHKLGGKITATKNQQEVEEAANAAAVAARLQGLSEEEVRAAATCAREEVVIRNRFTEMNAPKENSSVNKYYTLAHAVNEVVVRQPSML

B1
binding result (8His-MBP-DRN): binds | binding result [1]: binds

B2
binding result (GST-BRM): binds
